Experimental data taken from patent US20240327535A1 (EISAI R AND D MANAGEMENT, published 2024).
Positions count from the first letter of the chain named.

T1: extracellular domain of human BCMA (human, UniProt Q02223 1-54)
T1 construct: amine-linked to Octet AR2G tips; also called hsBCMA; BCMA (human)
T1 sequence: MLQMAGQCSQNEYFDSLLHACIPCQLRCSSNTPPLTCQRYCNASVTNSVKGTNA

B1: AB200-R1a-Fab_VH1 (Fab, V domains shown)
VH: QVQLVQSGAEVKKPGSSVKVSCKASGGTFSNYWMHWVRQAPGQGLEWMGATYRGHSETYYNEKFKGRVTITADKSTSTAYMELSSLRSEDTAVYYCARGAIYHGYDVLDDWGQGTLVTVSS
VL: DIQMTQSPSSLSASVGDRVTITCSATQDISNYLNWYQQKPGKAPKLLIYFTSNLQSGVPSRFSGSGSGTDFTLTISSLQPEDFATYYCQQYRKLPWTFGQGTKLEIKR
B2: AB200-R1a-Fab_VH27 (Fab, V domains shown)
VH: B1 VH with S25T, T51I, E57D, E62Q, K65R, D110N
VL: B1 VL
B3: AB200-R1a-Fab_VH13 (Fab, V domains shown)
VH: B1 VH with E57T, N61A, E62Q, F64Y, D110N
VL: B1 VL
B4: AB200-R1a-Fab_VH5 (Fab, V domains shown)
VH: B1 VH with E57D, T58S, Y59N, E62N, D110N
VL: B1 VL
B5: AB200-R1a-Fab_VH18 (Fab, V domains shown)
VH: B1 VH with R53K, E57D, E62Q, K74E, D106E, D110N
VL: B1 VL
B6: AB200-R1a-Fab_VH36 (Fab, V domains shown)
VH: B1 VH with Y52F, E57D, E62H, Y105F, D110N
VL: B1 VL
B7: AB200-R1a-Fab_VH37 (Fab, V domains shown)
VH: B1 VH with S30T, R53K, E57D, E62Q, K65R, D110N
VL: B1 VL
B8: AB200-R1a-Fab_VH35 (Fab, V domains shown)
VH: B1 VH with M34I, Y52F, R53K, E57D, E62Q, D110N
VL: B1 VL
B9: AB200-R1a-Fab_VH34 (Fab, V domains shown)
VH: B1 VH with W33Y, M34L, E57D, E62Q, H103N, D110N
VL: B1 VL
B10: AB200-R1a-Fab_VH41 (Fab, V domains shown)
VH: B1 VH with E57D, V107I, D109N, D110N
VL: B1 VL
B11: AB200-R1a-Fab_VH51 (Fab, V domains shown)
VH: B1 VH with E57D, Y59N, E62Q, A100T, Y105F, D110N
VL: B1 VL
B12: AB200-R1a-Fab_VH24 (Fab, V domains shown)
VH: B1 VH with S30T, E57N, E62Q, L108I, D110N
VL: B1 VL
B13: AB200-R1a-Fab_VH30 (Fab, V domains shown)
VH: B1 VH with F29Y, S56T, E57D, E62Q, L108M, D110N
VL: B1 VL
B14: AB200-R1a-Fab_VH3 (Fab, V domains shown)
VH: B1 VH with H35S, E57Q, E62Q, I101V, D110N
VL: B1 VL
B15: AB200-R1a-Fab_VH31 (Fab, V domains shown)
VH: B1 VH with A50G, E57D, Y60F, E62Q, Y105F, D110N
VL: B1 VL
B16: AB200-R1a-Fab_VH26 (Fab, V domains shown)
VH: B1 VH with T28S, G54I, E57D, Y59F, E62Q, D110N
VL: B1 VL
B17: AB200-R1a-Fab_VH15 (Fab, V domains shown)
VH: B1 VH with F29Y, E57D, T58A, E62Q, K63R, D110N
VL: B1 VL
B18: AB200-R1a-Fab_VH19 (Fab, V domains shown)
VH: B1 VH with T28S, H35Q, E57D, E62Q, A100S, D110N
VL: B1 VL
B19: AB200-R1a-Fab_VH21 (Fab, V domains shown)
VH: B1 VH with W33A, H55Q, E57D, E62Q, F64Y, D110N
VL: B1 VL
B20: AB200-R1a-Fab_VH17 (Fab, V domains shown)
VH: B1 VH with N31S, E57D, N61A, E62Q, D106E, D110N
VL: B1 VL
B21: AB200-R1a-Fab_VH33 (Fab, V domains shown)
VH: B1 VH with S30T, Y32F, H55Q, E57D, E62Q, D110N
VL: B1 VL
B22: AB200-R1a-Fab_VH38 (Fab, V domains shown)
VH: B1 VH with E57D, Y60F, E62Q, Y102F, H103N, D110N
VL: B1 VL
B23: AB200-R1a-Fab_VH2 (Fab, V domains shown)
VH: B1 VH with E57D, E62Q, K65Q, I101V, Y102F, D110N
VL: B1 VL
B24: AB200-R1a-Fab_VH20 (Fab, V domains shown)
VH: B1 VH with Y52I, E57Q, E62Q, K65Q, D110N
VL: B1 VL
B25: AB200-R1a-Fab_VH23 (Fab, V domains shown)
VH: B1 VH with W33Y, E57D, Y59F, N61A, E62Q, D110N
VL: B1 VL
B26: AB200-R1a-Fab_VH4 (Fab, V domains shown)
VH: B1 VH with S25T, E57N, N61D, E62Q, D110N
VL: B1 VL
B27: AB200-R1H32-R2Vk19 (Fab, V domains shown)
VH: B1 VH with G54S, E57D, E62Q, G66S, L108I, D110N
VL: B1 VL with S24R, T26S, D28S, N31S, F50A, K93R, T97S
B28: AB200-R1H32-R2Vk37 (Fab, V domains shown)
VH: B1 VH with G54S, E57D, E62Q, G66S, L108I, D110N
VL: B1 VL with S24R, T26S, D28S, N31S, L33I, F50A, L94I, T97S
B29: AB200-R1H32-R2Vk32 (Fab, V domains shown)
VH: B1 VH with G54S, E57D, E62Q, G66S, L108I, D110N
VL: B1 VL with S24R, T26S, D28S, N31S, F50A, S56I, L94I, T97S
B30: AB200-R1H32-R2Vk33 (Fab, V domains shown)
VH: B1 VH with G54S, E57D, E62Q, G66S, L108I, D110N
VL: B1 VL with S24R, T26S, D28S, N31S, F50A, S56I, Y91F, L94I
B31: AB200-R1H32-R2Vk23 (Fab, V domains shown)
VH: B1 VH with G54S, E57D, E62Q, G66S, L108I, D110N
VL: B1 VL with S24R, T26S, D28S, N31S, F50A, Y91F, L94I
B32: AB200-R1H32-R2Vk22 (Fab, V domains shown)
VH: B1 VH with G54S, E57D, E62Q, G66S, L108I, D110N
VL: B1 VL with S24R, T26S, D28S, N31S, F50A, L94I, T97S
B33: AB200-R1H32-R2Vk18 (Fab, V domains shown)
VH: B1 VH with G54S, E57D, E62Q, G66S, L108I, D110N
VL: B1 VL with S24R, T26S, D28S, N31S, L33I, F50A, T51A, N53S, Y91F, L94I
B34: AB200-R1H32-R2Vk25 (Fab, V domains shown)
VH: B1 VH with G54S, E57D, E62Q, G66S, L108I, D110N
VL: B1 VL with S24R, T26S, D28S, N31S, F50A, L54I, K93R, L94I
B35: AB200-R1H32-R2Vk43 (Fab, V domains shown)
VH: B1 VH with G54S, E57D, E62Q, G66S, L108I, D110N
VL: B1 VL with S24R, T26S, D28S, N31S, L33I, F50A, L54I, Y91F, L94I
B36: AB200-R1H32-R2Vk38 (Fab, V domains shown)
VH: B1 VH with G54S, E57D, E62Q, G66S, L108I, D110N
VL: B1 VL with S24R, T26S, D28S, N31S, L33I, F50A, Y91F, L94I
B37: AB200-R1H32-R2Vk44 (Fab, V domains shown)
VH: B1 VH with G54S, E57D, E62Q, G66S, L108I, D110N
VL: B1 VL with S24R, T26S, D28S, N31S, L33I, F50A, S56I, K93R, T97S
B38: AB200-R1H32-R2Vk40 (Fab, V domains shown)
VH: B1 VH with G54S, E57D, E62Q, G66S, L108I, D110N
VL: B1 VL with S24R, T26S, D28S, N31S, L33I, F50A, L54I, K93R, L94I
B39: AB200-R1H32-R2Vk26 (Fab, V domains shown)
VH: B1 VH with G54S, E57D, E62Q, G66S, L108I, D110N
VL: B1 VL with S24R, T26S, D28S, N31S, F50A, L54I, Y91F, K93R
B40: AB200-R1H32-R2Vk34 (Fab, V domains shown)
VH: B1 VH with G54S, E57D, E62Q, G66S, L108I, D110N
VL: B1 VL with S24R, T26S, D28S, N31S, L33I, F50A, K93R, T97S
B41: AB200-R1H32-R2Vk29 (Fab, V domains shown)
VH: B1 VH with G54S, E57D, E62Q, G66S, L108I, D110N
VL: B1 VL with S24R, T26S, D28S, N31S, F50A, S56I, K93R, T97S
B42: AB200-R1H32-R2Vk30 (Fab, V domains shown)
VH: B1 VH with G54S, E57D, E62Q, G66S, L108I, D110N
VL: B1 VL with S24R, T26S, D28S, N31S, F50A, S56I, K93R, L94I

Molecular target: T1, extracellular domain of human BCMA
Assay: Octet BLI; Fab 200 nM

Row | Binder | Kd [nM]
1 | B1 | 21
2 | B2 | 3.8
3 | B3 | 5.38
4 | B4 | 21.1
5 | B5 | 7.73
6 | B6 | 28.1
7 | B7 | 5.28
8 | B8 | 8.5
9 | B9 | 18.9
10 | B10 | 14.5
11 | B11 | 18.9
12 | B12 | 13.1
13 | B13 | 22.3
14 | B14 | 53.1
15 | B15 | 9.06
16 | B16 | 0.926
17 | B17 | 11.7
18 | B18 | 18.5
19 | B19 | 5.23
20 | B20 | 82.7
21 | B21 | 1.43
22 | B22 | 4.12
23 | B23 | 2.85
24 | B24 | 10.5
25 | B25 | 20.4
26 | B26 | 5.45

Molecular target: T2, extracellular domain of rhesus monkey BCMA (rhesus monkey, UniProt F7FFA0 1-53)
T2 construct: extracellular domain; also called RhBCMA
T2 sequence (F7FFA0 entry or part of it): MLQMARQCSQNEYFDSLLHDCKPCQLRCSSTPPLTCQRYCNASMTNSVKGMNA
Assay: Octet BLI; Fab 200 nM

Row | Binder | Kd [nM]
27 | B1 | 32.2
28 | B2 | 7.84
29 | B3 | 12.9
30 | B4 | 23.4
31 | B5 | 10.6
32 | B6 | 45.4
33 | B7 | 10.4
34 | B8 | 9.49
35 | B9 | 13.2
36 | B12 | 24.5
37 | B13 | 28.2
38 | B15 | 19.2
39 | B16 | 2.31
40 | B17 | 17.1
41 | B18 | 35.6
42 | B19 | 11.1
43 | B20 | 70.2
44 | B21 | 5.12
45 | B22 | 12.1
46 | B23 | 11.1
47 | B24 | 15.1
48 | B25 | 19.9
49 | B26 | 13.7

Molecular target: T1, extracellular domain of human BCMA
Assay: Octet BLI; Fab 200 nM
Remark: another data set of the same source

Row | Binder | Kd [nM]
50 | B27 | 0.946
51 | B28 | 0.85
52 | B29 | 0.873
53 | B30 | 0.996
54 | B31 | 1.13
55 | B32 | 1.06
56 | B33 | 1.52
57 | B34 | 1.04
58 | B35 | 1.29
59 | B36 | 1.15
60 | B37 | 0.71
61 | B38 | 1.03
62 | B39 | 1.06
63 | B40 | 1.12
64 | B41 | 1.14
65 | B42 | 0.816

Molecular target: T2, extracellular domain of rhesus monkey …
Assay: Octet BLI; Fab 200 nM
Remark: another data set of the same source

Row | Binder | Kd [nM]
66 | B27 | 4.57
67 | B28 | 4.41
68 | B29 | 4.83
69 | B30 | 4.29
70 | B31 | 5.08
71 | B32 | 5.64
72 | B33 | 6.3
73 | B34 | 5.62
74 | B35 | 9.2
75 | B36 | 5.35
76 | B37 | 3.32
77 | B38 | 5.08
78 | B39 | 3.85
79 | B40 | 4.53
80 | B41 | 3.69
81 | B42 | 3.92
